# Data: US20050100965A1 (published 2005)
# Substitutions are numbered along the chain they refer to. Several values for one entry are separate records, joined by “and”; a condition that tells them apart may be missing. Equal values may be shown once.
# B1: HuMAb 351 (antibody, V domains shown)
# VH: ZVQLVESGGGVVQPGRSLRLSCAASGFTFSHYGMHWVRQAPGKGLEWVAVISYDGRNKYYVDSVKGRFTISRDNSKNTLYLQMNSLRAEDTAVFYCAREKGGSGWPPFYYYYGMDVWGQGTTVTVSS
# VL: DIVMTQTPLSLSVTPGQPASISCKSSQNLLYSDGETYLCWYLQKPGQPPQLLIYEVSNRFSGVPERFSGSGSGTDFTLKISRVEAEDVGIYYCMQNVQLPLTFGGGTRVEIKR
# B2: HuMAb 2.5.1 (antibody, V domains shown)
# VH: ZVQLVQSGTEVKKPGESLKISCKGSGYTVTSYWIGWVRQMPGKGLEWMGFIYPGDSETRYSPTFQGQVTISADKSFNTAFLQWSSLKASDTAMYYCARVGSGWYPYTFDIWGQGTMVTVSS
# VL: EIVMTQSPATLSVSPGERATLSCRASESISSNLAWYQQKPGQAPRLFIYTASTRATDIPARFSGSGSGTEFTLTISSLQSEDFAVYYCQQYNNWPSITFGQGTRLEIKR
# B3: HuMAb 268 (antibody, V domains shown)
# VH: ZVQLVESGGGVVQPGRSLRLSCAASGFTFRNYGLHWVRQAPGKGLEWVAVIWYDGSNKYYADSVKGRFTISRDNSKNTLYLQMNSLRAEDTAVYYCARESYYYYGMDVWGQGTTVTVSS
# VL: EIVMTQSPATLSVSPGERATLSCRASQSFNSNLVWYQQKPGQAPRLLIYGASTRATGIPARFSGSGSGTEFTLTISSLQSEDFAVYYCQQYNNWTWTFGQGTKVEIKR
# B4: HuMAb 413 (antibody, V domains shown)
# VH: ZTQLQESGPGLVKPSETLSLTCTVSGGSISSRVYYWGWIRQPPGKGLEWIGSIYYSGSTYYSPSLKSRVTISVDTSKNQFSLKLSSVTAADTAIYYCAREDSSAWVFEHWGQGTLVTVSS
# VL: EIVLTQSPDTLSLSPGERATLSCRASQILSRNYLAWYQQKPGQAPRLLIYGISIRATGIPDRFSGSGSGADFTLTINRLEPEDFAVYYCQHYDNSLCSFGQGTKLEVKR
# B5: HuMAb 435 (antibody, V domains shown)
# VH: ZLQLQESGPGLVKPSETLSLTCTVSGGSIDSRIYYWGWIRQPPGKGLEWIGSIYYRGSTYYNPSLKSRVTISVDTPKNQFSLKLNSVTAADTAVYYCAREDSSAWVFDYWGQGTLATVSS
# VL: EIVLTQSPGTLSLSPGERATLSCRASQSVRNNYLNWYQQKPGQAPRLLIYGAFSRATGIPDRFSGSGSGTDFTLTISSLEPEDFVVYYCQQYGNSIDSFGQGTKLEINR
# B6: HuMAb 2.13.1 (antibody, V domains shown)
# VH: ZVQLQESGPGLVTPSQTLSLTCTVSGGSISSGGHYWTWIRQHPGKGLEWIGYIYYSGSTYYNPSLKSRLTISVDTSKNQFSLKLSSVAAADTAVYYCARDRGGSGSYWDYWGQGTLVTVSS
# VL: EIVLTQSPGTLSLSPGERATLSCRGSRSVSSGYLAWYQQKPGQAPRLLIYGVSIRATGIPDRFSGSGSGTDFTLTISRLEPEDFAVYYCQQYHGSPLTFGGGTKVEIKR
# B7: HuMAb 550 (antibody, V domains shown)
# VH: ZVQLQESGPGLVKPSQTLSLTCTVSGGSINSGGYYWSWIRQHPGKGLEWIGHISYRGTTYSNPSLKSRVTISVDTSKNQFSLKLSSVTAADTAVYYCARDRGGGFFDLWGRGTLVTVSS
# VL: B6 VL with G25A, R27Q, S30N, G58D, G69A, H93G, G94F, K104R, K108N
# notes: KG-1 IC50 printed as TBD
# B8: HuMAb 215 (antibody, V domains shown)
# VH: B7 VH with G33D, S61Y, Y96C
# VL: B6 VL with G25A, V29L, V52A, G69A, H93N, G94Y, K104R, K108N
# Assays:
# [1] = target: NEM-huIL-18 (human, UniProt Q14116 37-193, cysteines treated with N-ethyl maleiamide (NEM)); assay: cell-based or functional assay
# [2] = target: T1, Biotinylated rhuIL-18 (biot-IL-18) (human, UniProt Q14116 37-193, NEM-treated cysteines; biotin on lysine residues (mixture with 1, 2, 3 or 4 biotins per huIL-18)); assay: biotinylated IL-18 ELISA, hybridoma or B cell supernatant
# T1 construct: also called biotinylated NEM-huIL-18; biotinylated IL-18
# From the text: An ELISA was developed to screen for antibodies that bind human IL-18. […] Hybridoma or B cell supernatants were applied and IL-18-bound antibodies were detected using HRP-conjugated anti-human IgGs, following standard ELISA protocols well known in the art.
Binder,"KG-1 Assays (IC50, M) [1]",binding result [2]
B1,2e-10 M,–
B2,3e-10 M and 4e-10 M,–
B3,7e-09 M,–
B4,1e-09 M and 7e-10 M,–
B5,8e-10 M and 7e-10 M and 4e-10 M,–
B6,2e-10 M and 1e-10 M and 7e-11 M,–
B7,–,binds
B8,1e-10 M and 3e-10 M,–
